Data as given in patent US20060281109, “Polymerases” (published 2006).
Numbering of substitutions follows the chain as printed.

T1: 9°N-7 YAV C223S exo- 71 deletion (C-terminus 704) (Thermococcus sp. 9°N-7) (UniProt Q56366)
T1 sequence: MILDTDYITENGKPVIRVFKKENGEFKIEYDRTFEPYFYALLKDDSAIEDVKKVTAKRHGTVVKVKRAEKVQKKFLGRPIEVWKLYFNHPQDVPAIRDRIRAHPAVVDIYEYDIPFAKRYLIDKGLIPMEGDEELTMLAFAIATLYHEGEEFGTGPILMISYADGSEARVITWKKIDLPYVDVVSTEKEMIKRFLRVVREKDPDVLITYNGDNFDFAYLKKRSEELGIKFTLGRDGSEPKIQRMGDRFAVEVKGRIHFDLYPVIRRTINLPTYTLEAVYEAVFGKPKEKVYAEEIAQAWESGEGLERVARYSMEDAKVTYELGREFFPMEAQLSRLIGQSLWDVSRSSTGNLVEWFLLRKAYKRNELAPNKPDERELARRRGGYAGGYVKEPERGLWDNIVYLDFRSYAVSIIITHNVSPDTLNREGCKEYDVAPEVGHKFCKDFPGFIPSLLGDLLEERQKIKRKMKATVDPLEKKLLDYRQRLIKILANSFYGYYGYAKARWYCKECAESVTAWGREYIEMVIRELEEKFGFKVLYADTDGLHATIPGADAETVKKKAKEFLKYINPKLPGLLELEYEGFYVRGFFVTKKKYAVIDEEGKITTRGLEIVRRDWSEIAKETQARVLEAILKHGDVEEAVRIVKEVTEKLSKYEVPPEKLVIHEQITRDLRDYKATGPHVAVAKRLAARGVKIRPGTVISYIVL

T2: 9°N-7 DNA polymerase YAV C223S exo- (clone 9) C223S,L408Y,Y409A,P410V (Thermococcus sp. 9°N-7) (UniProt Q56366)
T2 sequence: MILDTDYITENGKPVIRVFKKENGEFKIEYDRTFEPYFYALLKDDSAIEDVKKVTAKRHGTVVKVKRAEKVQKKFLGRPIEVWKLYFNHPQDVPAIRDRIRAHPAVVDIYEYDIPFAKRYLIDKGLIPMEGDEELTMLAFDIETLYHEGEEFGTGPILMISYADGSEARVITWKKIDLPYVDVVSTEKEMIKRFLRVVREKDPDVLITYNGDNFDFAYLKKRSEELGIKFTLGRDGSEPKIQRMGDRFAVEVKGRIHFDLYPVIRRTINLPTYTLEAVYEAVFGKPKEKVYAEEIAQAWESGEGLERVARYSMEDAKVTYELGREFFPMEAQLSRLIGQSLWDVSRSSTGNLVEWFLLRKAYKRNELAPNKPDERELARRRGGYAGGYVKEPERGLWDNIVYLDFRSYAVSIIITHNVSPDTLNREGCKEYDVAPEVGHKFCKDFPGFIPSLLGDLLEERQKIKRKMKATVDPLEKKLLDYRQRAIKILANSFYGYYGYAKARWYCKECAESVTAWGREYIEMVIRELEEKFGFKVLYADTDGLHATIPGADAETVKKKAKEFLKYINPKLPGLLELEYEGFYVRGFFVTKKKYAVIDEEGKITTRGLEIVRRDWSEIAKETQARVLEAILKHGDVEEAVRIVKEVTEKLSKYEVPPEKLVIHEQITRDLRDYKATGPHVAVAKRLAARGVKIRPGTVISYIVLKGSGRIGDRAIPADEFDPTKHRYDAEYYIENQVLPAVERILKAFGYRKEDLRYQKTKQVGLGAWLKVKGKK

T3: 9°N-7 YAV C223S exo- K705A (Thermococcus sp. 9°N-7, UniProt Q56366 SEQ:1-775)
T3 chain: T2 sequence with D141A, E143A, A485L, R743A

T4: 9°N-7 YAV C223S exo- R743A (Thermococcus sp. 9°N-7) (UniProt Q56366)
T4 sequence: T2 sequence with D141A, E143A, A485L, K705A

T5: 9°N-7 YAV C223S exo- R713A (Thermococcus sp. 9°N-7) (UniProt Q56366)
T5 sequence: T2 sequence with D141A, E143A, A485L, R713A

B1: A-template hairpin oligo 815 (structured_DNA)
DNA: CGATCACGATCACGATCACGATCACGATCACGATCACGCTGATGTGCATGCTGTTGTTTTTTTACAACAGCATGCACATCAGCG
modifications: 5'-amino, surface coupled

Key:
[1] = biological target: T1, 9°N-7 YAV C223S exo- 71 deletion (C-terminus 704) (Thermococcus sp. 9°N-7); settings: crude enzyme; kobs relative to YAV, essentially inactive
[2] = biological target: T2, 9°N-7 DNA polymerase YAV C223S exo- (clone 9) C223S,L408Y,Y409A,P410V (Thermococcus sp. 9°N-7); settings: burst kobs, DNA:pol 5:1; biphasic, burst amplitude 19%
[3] = biological target: T3, 9°N-7 YAV C223S exo- K705A; settings: burst kobs, DNA:pol 5:1; biphasic, burst amplitude ~28%
[4] = biological target: T4, 9°N-7 YAV C223S exo- R743A (Thermococcus sp. 9°N-7); settings: kobs, DNA:pol 5:1; single exponential, amplitude ~90%
[5] = biological target: T5, 9°N-7 YAV C223S exo- R713A (Thermococcus sp. 9°N-7); settings: kobs, DNA:pol 5:1; single exponential, amplitude ~90%
[6] = biological target: T3, 9°N-7 YAV C223S exo- K705A; test: washing assay; similar response to clone 9; settings: hairpin with 5' overhang
Procedure: Once washed, each well was incubated with a 20 μl aliquot of 500 nM enzyme (clone 9, K705A, R713A or R743A mutants) at 45° C. for 30 minutes. Post incubation, each well was washed with […] 10 mM Tris pH 8.0, 10 mM EDTA including varying concentrations of NaCl (0, 0.05, 0.1, 0.3, 0.4, 0.75, 1.0, 2.0 M) and then […] MilliQ water. Wells were subsequently pre-equilibrated with enzymology buffer prior to a further incubation of 20 μl of 2 μM ffT-N3-647 at 45° C. for 30 minutes. Wells were washed with 3×100 ml high salt wash buffer (10 mM Tris pH 8.0, 1M NaCl, 10 mM EDTA) and then 3×100 ml MilliQ water. Strips scanned on Typhoon fluorescence imager (y5 filter, PMT=500 V).

Molecule	relative kobs (% of YAV) [1] [%]	activity [2] [s⁻¹]	activity [3] [s⁻¹]	activity [4] [s⁻¹]	activity [5] [s⁻¹]	binding result [6]
10 A hairpin DNA	21	0.06	0.06	0.004	0.01	–
B1	–	–	–	–	–	binds
